# Test results: patent US20180008723A1 (UNIVERSITE DES SCIENCES ET TECHNOLOGIES DE LILLE LILLE 1, published 2018)
# Key:
# [1] = target: T1, MET-Fc (extracellular MET domain fused with human IgG1-Fc) (human, UniProt P08581 25-932); assay: AlphaScreen saturation assay; the reference is a literature value that is not given
# T1 construct: extracellular domain; Recombinant chimera; also called recombinant extracellular MET-Fc chimera; hMET-Fc; not shown: human IgG1 Fc
# Procedure: (§1) Dashed arrows indicate distances between subdomain C-termini. (b) NB, K1B and MET-Fc binding assay. Increasing concentrations of NB or K1B were mixed with extracellular MET domain fused with human IgG1-Fc (MET-Fc), and incubated with streptavidin AlphaScreen donor beads and Protein A acceptor beads. Error bars correspond to standard error (+/−SD) of triplicates. (c) Endogenous MET capture. Streptavidin coated beads loaded with NB or K1B were incubated with HeLa or Capan-1 total cell lysates. Input, flow-through and elution fractions from NB or K1 loaded beads were analyzed by specific total MET western blot.
# The binding of K1B/S complexes to MET was examined using AlphaScreen technology. K1B was loaded on streptavidin-coated donor beads and incubated with recombinant extracellular MET-Fc chimera loaded on Protein A-coated acceptor beads. If K1B/S donor beads interact with MET-Fc/Protein A acceptor beads, a chemical energy transfer is possible between the beads, leading to fluorescence emission upon laser excitation. […] Since the bead-based AlphaScreen assay can generate avidity and thus introduce a bias in the estimation of the apparent KD in saturation experiments, it was performed the reciprocal competition assay by adding increasing concentrations of preformed K1B/S complex (2:1 molar ratio) into the K1B/MET-Fc/AlphaScreen bead mixture (FIG. 6). […]
# [2] = target: T1, MET-Fc (extracellular MET domain fused …); assay: AlphaScreen saturation assay: K1B on streptavidin donor beads, MET-Fc on Protein A acceptor beads
# Procedure: as §1, with “FIG. 4. K1B and NB MET binding properties. (a) Structure of NK1 dimer (center, PDB 1BHT) and spatial relative orientation of each N (left) and K1 (right) monomers within the dimer. Dashed” for “Dashed”
# (§2) The binding of K1B/S complexes to MET was examined using AlphaScreen technology. K1B was loaded on streptavidin-coated donor beads and incubated with recombinant extracellular MET-Fc chimera loaded on Protein A-coated acceptor beads. If K1B/S donor beads interact with MET-Fc/Protein A acceptor beads, a chemical energy transfer is possible between the beads, leading to fluorescence emission upon laser excitation. […]
# [3] = target: T1, MET-Fc (extracellular MET domain fused …); assay: AlphaScreen saturation assay: K1B on streptavidin-coated donor beads, MET-Fc on Protein A-coated acceptor beads (apparent, multivalent display); saturation assay; K1B on streptavidin-coated donor beads (apparent KD, avidity possible)
# Procedure: as §1, with “FIG. 4. K1B and NB MET binding properties. (a) Structure of NK1 dimer (center, PDB 1BHT) and spatial relative orientation of each N (left) and K1 (right) monomers within the dimer. Dashed” for “Dashed”
# as §2
# [4] = target: T1, MET-Fc (extracellular MET domain fused …); assay: AlphaScreen saturation assay: NB on streptavidin donor beads, MET-Fc on Protein A acceptor beads
# Procedure: as §1, with “FIG. 4. K1B and NB MET binding properties. (a) Structure of NK1 dimer (center, PDB 1BHT) and spatial relative orientation of each N (left) and K1 (right) monomers within the dimer. Dashed” for “Dashed”
# as §2
# [5] = target: T2, endogenous MET receptor of human cells (HeLa, Capan-1) (human, UniProt P08581 25-1390); assay: pull-down of endogenous MET from HeLa and Capan-1 total cell lysates on streptavidin beads loaded with NB, total MET western blot
# T2 construct: whole, on cells; On living HeLa cells in the signalling assays; from whole cell lysates of HeLa or Capan-1 cells in the capture experiment; also called tyrosine kinase receptor MET
# T2 sequence (P08581 25-1390): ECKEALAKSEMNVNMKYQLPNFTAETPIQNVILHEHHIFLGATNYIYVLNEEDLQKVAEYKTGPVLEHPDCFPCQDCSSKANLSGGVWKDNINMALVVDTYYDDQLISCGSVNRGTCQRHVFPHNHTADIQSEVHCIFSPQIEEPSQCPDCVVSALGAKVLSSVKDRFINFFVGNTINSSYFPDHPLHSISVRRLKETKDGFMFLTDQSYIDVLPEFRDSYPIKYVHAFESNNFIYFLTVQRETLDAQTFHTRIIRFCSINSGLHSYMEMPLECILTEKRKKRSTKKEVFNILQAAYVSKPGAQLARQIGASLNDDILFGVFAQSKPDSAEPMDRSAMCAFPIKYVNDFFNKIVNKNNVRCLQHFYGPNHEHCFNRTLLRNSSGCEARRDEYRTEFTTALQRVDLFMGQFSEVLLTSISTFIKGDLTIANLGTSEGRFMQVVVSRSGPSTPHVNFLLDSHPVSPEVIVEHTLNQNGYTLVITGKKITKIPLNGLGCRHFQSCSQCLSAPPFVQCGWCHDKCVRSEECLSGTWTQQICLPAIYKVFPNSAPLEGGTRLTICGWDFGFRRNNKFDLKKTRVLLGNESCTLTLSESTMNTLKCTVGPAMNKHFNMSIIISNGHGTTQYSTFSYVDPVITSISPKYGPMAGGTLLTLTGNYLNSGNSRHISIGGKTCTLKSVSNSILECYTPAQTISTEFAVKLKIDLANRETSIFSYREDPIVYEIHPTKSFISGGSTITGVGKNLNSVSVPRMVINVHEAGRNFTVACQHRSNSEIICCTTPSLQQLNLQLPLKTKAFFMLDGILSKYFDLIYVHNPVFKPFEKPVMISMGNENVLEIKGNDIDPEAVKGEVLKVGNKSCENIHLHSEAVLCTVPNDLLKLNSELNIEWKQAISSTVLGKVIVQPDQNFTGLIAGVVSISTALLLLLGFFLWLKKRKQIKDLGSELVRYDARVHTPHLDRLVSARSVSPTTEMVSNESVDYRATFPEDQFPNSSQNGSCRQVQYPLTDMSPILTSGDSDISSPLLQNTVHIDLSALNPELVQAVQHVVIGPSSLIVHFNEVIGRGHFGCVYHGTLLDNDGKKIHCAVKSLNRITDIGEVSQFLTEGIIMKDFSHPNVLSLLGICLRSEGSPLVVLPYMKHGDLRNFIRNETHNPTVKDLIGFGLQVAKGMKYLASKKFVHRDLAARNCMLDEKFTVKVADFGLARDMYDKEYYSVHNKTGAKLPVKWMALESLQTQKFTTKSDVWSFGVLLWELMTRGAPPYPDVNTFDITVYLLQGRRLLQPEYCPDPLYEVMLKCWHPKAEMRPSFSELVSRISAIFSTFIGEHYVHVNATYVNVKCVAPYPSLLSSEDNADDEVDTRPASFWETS
# Procedure: as §1, with “FIG. 4. K1B and NB MET binding properties. (a) Structure of NK1 dimer (center, PDB 1BHT) and spatial relative orientation of each N (left) and K1 (right) monomers within the dimer. Dashed” for “Dashed”
# HeLa and Capan-1 cells were collected by scraping and then lysed on ice with a lysis buffer (20 mM Tris HCl, 50 mM NaCl, 5 mM EDTA and 1% Triton X-100). Lysates were clarified by centrifugation (20,000 g×15 min) and protein concentration was determined (BCA protein assay Kit, Pierce®, Thermo scientific, IL, USA). Streptavidin-Sepharose beads (GE Healthcare) were washed and equilibrated in PBS. Beads were loaded with 15 μg K1B or NB (100 μl beads in a 50:50 PBS:bead slurry) for 20 min at room temperature and immediately washed with PBS. […] Elution fractions were then analyzed by western blotting.
# T1 sequence (P08581 25-932): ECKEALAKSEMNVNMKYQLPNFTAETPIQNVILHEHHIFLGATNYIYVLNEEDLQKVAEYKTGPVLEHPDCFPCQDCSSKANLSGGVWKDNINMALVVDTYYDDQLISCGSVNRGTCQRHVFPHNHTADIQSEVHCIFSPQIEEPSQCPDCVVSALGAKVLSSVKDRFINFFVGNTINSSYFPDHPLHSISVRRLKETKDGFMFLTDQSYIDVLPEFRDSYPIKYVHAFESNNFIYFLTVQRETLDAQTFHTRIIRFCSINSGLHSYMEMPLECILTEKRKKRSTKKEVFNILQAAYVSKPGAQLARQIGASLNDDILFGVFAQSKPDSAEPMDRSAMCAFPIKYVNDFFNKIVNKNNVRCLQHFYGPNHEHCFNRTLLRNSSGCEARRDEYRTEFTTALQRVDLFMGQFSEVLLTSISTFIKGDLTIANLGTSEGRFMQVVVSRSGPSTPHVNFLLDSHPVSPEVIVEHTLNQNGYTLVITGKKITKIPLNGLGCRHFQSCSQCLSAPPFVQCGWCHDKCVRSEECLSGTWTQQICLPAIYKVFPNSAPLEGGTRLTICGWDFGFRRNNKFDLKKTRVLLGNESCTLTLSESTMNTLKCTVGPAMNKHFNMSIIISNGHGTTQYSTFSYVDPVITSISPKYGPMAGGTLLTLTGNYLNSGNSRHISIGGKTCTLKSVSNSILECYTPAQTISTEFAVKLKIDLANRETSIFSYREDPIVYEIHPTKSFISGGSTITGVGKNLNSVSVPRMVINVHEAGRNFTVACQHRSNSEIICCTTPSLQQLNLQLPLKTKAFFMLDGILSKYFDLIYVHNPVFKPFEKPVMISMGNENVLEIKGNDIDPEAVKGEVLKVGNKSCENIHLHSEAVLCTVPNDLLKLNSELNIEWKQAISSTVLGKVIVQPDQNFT
fold lower apparent KD than the KD reported for monomeric K1 protein-MET interaction [1] [fold],EC50 (read off the curve) [2] [nM],Kd [3] [nM],binding result [4],binding result [5],Binder
~100,~20,~16,–,–,"K1B (biotinylated K1 domain of HGF/SF, residues 125-209 with C-terminal GGK(biotin) extension) (ligand, C-terminal lysine of the GGK extension modified on its side chain with a biotin group; three native disulfide bonds, also called K1-Biot; biotinylated version of the K1 domain) IRNCIIGKGRSYKGTVSITKSGIKCQPWSSMIPHEHSFLPSSYRGKDLQENYCRNPRGEEGGPWCFTSNPEVRYEVCDIPQCSEVGGK"
–,–,–,no binding (tested: 300 nM),no binding,"NB (ligand, human, UniProt P14210 31-127, looked up, biotinylated; the site is not stated for NB, isolated N domain, chemically synthesised and biotinylated, not pre-mixed with soluble streptavidin; It is distinct from m9, the NB/S complex pre-mixed 2:1 with streptavidin; In both assays NB is presented on streptavidin-coated beads; also called biotinylated N domain of HGF/SF) single chain: GQRKRRNTIHEFKKSAKTTLIKIDPALKIKTKKVNTADQCANRCTRNKGLPFTCKAFVFDKARKQCLWFPFNSMSSGVKKEFGHEFDLYENKDYIRN"
